Patent US20240018206A1

Biological target: IL-1 receptor (IL-1R1) on A375.s2 cells (UniProt P14778)
Assay: cell-based or functional assay

Chain of UniProt P14778 (P14778 18-569 limits assumed): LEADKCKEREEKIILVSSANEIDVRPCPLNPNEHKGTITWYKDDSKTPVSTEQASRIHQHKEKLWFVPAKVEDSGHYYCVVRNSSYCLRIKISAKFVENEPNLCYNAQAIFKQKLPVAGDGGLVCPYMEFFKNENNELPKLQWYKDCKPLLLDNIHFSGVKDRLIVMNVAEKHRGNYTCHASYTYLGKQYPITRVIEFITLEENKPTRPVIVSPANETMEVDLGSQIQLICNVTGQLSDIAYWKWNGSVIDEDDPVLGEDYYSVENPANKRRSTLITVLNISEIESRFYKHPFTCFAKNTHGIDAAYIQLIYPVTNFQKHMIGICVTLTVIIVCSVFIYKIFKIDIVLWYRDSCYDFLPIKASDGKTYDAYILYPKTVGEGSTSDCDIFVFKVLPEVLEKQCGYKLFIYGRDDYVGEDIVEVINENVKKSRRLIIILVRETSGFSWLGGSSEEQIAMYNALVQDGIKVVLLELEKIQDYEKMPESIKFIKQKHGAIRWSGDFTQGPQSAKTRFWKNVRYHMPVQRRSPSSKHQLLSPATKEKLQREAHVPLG

Substance | IC50(µg/ml), inhibition of IL-1β induced A375.s2 apoptosis (MTS, 490 nM) | biological activity relative to the wild type | IL1RN activity IC50
IL-1RN D74N-Fc without linker (from UniProt P18510 26-177) (Fc fusion) | 4.85 µg/mL | 3 fold | 
Wild-type IL-1RN-Fc of Table 2 (from UniProt P18510 26-177) (Fc fusion) | 12.1 µg/mL |  | 
IL-1RN-TNFR2-Fc dual-target fusion protein (IL-1RN D74N, TNFR2, hIgG4 Fc S228P) (Fc fusion) |  |  | 0.714 µg/mL
IL-1RN-Fc, single-target comparator of Table 4 (from UniProt P18510 26-177) (Fc fusion) |  |  | 0.333 µg/mL
